The test deals with Bovine leukemia virus retropepsin (BLV-PR), mature recombinant protease (Bovine leukemia virus). The test is described as follows: enzyme kinetics (initial rate against enzyme concentration); dimer to monomers; BLV-PR 5-200 nM (as monomer) preincubated 15 min at 25°C in reaction buffer (250 mM phosphate pH 5.6, 500 mM NaCl, 10 mM EDTA, 5 mM DTT, 1% glycerol, 1% DMSO), then 1 uM MA-CA fluorogenic substrate, 37°C, rate of the first 3 min, fit of quadratic Eq 1.

With “Bovine leukemia virus retropepsin (BLV-PR), mature recombinant protease (enzyme)”, the Kd (commonly the free concentration of one partner at which half of the binding sites on the other are occupied at equilibrium, for simple one-to-one binding) was found to be 160 nM.

The record behind these values is publication PMC9307154.
